# Molecular target: the molecule itself
# Assay: SEC + other: gel electrophoresis without reducing agents; purified fragment in solution; molecular weight markers during FPLC elution (Superdex 200) and gel electrophoresis performed without reducing agents
protein,measurement,value
"core catalytic domain fragment of bovine ROS-GC1 (G817-Y965) (domain or fragment, bovine ROS-GC1 (retinal membrane guanylate cyclase 1), core catalytic domain, G817-Y965; numbers count on: the mature protein (according to Goraczniak et al., 1994); Cloned into the BglII/NcoI site of pET30Xa/LIC (Novagen); Residue numbers are on the mature protein, so they are shifted by the length of the signal peptide relative to the precursor entry; also called ROS-GC1 fragment; soluble …) not shown",stoichiometry N,2
